{"source": "patent CN1934266A", "experiment_in_all_cases": "ELISA, growth factor coated at 10 μg/ml, antibody at 10 μg/ml, mean of duplicates", "key": {"[1]": {"biological_target": "重组小鼠肌肉生长抑素(R&D systems，目录号788-G8/CF) (mouse) (UniProt O08689)", "sequence (O08689 268-376)": "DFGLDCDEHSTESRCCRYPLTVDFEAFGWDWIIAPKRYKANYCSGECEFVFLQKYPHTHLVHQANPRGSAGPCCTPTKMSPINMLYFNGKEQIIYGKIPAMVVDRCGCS"}, "[2]": {"biological_target": "BMP-6 (R&D Systems 507-BP) (UniProt P22004)", "sequence (P22004 382-513 limits assumed)": "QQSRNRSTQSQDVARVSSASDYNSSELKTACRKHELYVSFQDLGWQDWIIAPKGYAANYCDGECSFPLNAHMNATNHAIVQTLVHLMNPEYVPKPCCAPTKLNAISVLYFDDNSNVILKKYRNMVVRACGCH"}, "[3]": {"biological_target": "激活蛋白A (R&D Systems 338-AC) (UniProt P08476)", "sequence (P08476 311-426 limits assumed)": "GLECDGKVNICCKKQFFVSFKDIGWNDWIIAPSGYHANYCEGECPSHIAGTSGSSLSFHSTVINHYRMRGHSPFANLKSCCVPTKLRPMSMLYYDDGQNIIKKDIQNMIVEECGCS"}, "[4]": {"biological_target": "TGF-b2 (Peprotech 100-35) (UniProt P61812)", "sequence (P61812 303-414 limits assumed)": "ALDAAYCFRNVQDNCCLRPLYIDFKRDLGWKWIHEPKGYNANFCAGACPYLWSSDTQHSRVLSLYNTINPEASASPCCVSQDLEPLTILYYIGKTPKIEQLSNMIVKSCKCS"}, "[5]": {"biological_target": "TGF-a (R&D Systems 239-A) (UniProt P01135)", "sequence (P01135 40-89 limits assumed)": "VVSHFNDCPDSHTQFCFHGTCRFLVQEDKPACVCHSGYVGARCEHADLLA"}, "[6]": {"biological_target": "BMP-7 (R&D Systems 354-BP) (UniProt P18075)", "sequence (P18075 293-431 limits assumed)": "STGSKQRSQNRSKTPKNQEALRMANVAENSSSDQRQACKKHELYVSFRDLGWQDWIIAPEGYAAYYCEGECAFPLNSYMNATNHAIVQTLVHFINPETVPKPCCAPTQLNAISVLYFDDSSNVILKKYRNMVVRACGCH"}, "[7]": {"biological_target": "BMP-2 (R&D Systems 355-BEC/CF) (UniProt P12643)", "sequence (P12643 283-396 limits assumed)": "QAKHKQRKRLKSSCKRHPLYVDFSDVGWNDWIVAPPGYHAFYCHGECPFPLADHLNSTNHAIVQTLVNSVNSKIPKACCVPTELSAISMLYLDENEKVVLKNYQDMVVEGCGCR"}, "[8]": {"biological_target": "IGF-1 (R&D Systems 291-G1) (UniProt P05019)", "sequence (P05019 49-118 limits assumed)": "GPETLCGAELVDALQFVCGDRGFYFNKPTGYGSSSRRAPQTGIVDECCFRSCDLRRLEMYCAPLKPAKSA"}, "[9]": {"biological_target": "激活蛋白B (R&D Systems 659-AB) (UniProt P09529)", "sequence (P09529 293-407 limits assumed)": "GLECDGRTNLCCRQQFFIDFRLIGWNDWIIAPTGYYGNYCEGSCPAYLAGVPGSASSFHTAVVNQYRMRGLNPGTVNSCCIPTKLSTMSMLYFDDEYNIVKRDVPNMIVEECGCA"}, "[10]": {"biological_target": "TGF-b1 (Peprotech 100-21R) (UniProt P01137)", "sequence (P01137 279-390 limits assumed)": "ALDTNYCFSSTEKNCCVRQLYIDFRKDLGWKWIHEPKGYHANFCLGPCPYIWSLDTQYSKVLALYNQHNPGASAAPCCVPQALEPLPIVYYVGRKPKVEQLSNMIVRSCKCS"}, "[11]": {"biological_target": "重组人GDF-11(Peprotech公司，目录号120-11) (human) (UniProt O95390)", "sequence (O95390 299-407 limits assumed)": "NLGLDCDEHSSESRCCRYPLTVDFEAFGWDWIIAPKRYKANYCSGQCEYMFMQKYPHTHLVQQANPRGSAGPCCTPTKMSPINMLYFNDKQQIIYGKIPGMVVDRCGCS"}, "[12]": {"biological_target": "BMP-5 (R&D Systems 615-BM) (UniProt P22003)", "sequence (P22003 317-454 limits assumed)": "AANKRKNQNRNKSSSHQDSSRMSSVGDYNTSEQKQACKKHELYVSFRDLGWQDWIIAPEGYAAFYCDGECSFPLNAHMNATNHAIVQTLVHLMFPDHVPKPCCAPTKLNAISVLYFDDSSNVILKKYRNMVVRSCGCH"}}, "data": [{"substance": "多克隆抗肌肉生长抑素抗体(R&D Systems，目录号AF788) (antibody)", "values": [{"measurement": "平均吸光度 (OD 490 nm)", "setting": "[1]", "value": 2.94, "unit": "OD 490 nm"}, {"measurement": "平均吸光度 (OD 490 nm)", "setting": "[2]", "value": 0.0745, "unit": "OD 490 nm"}, {"measurement": "平均吸光度 (OD 490 nm)", "setting": "[3]", "value": 0.049, "unit": "OD 490 nm"}, {"measurement": "平均吸光度 (OD 490 nm)", "setting": "[4]", "value": 0.0525, "unit": "OD 490 nm"}, {"measurement": "平均吸光度 (OD 490 nm)", "setting": "[5]", "value": 0.0445, "unit": "OD 490 nm"}, {"measurement": "平均吸光度 (OD 490 nm)", "setting": "[6]", "value": 0.042, "unit": "OD 490 nm"}, {"measurement": "平均吸光度 (OD 490 nm)", "setting": "[7]", "value": 0.0525, "unit": "OD 490 nm"}, {"measurement": "平均吸光度 (OD 490 nm)", "setting": "[8]", "value": 0.045, "unit": "OD 490 nm"}, {"measurement": "平均吸光度 (OD 490 nm)", "setting": "[9]", "value": 0.0485, "unit": "OD 490 nm"}, {"measurement": "平均吸光度 (OD 490 nm)", "setting": "[10]", "value": 0.0425, "unit": "OD 490 nm"}, {"measurement": "平均吸光度 (OD 490 nm)", "setting": "[11]", "value": 2.62, "unit": "OD 490 nm"}, {"measurement": "平均吸光度 (OD 490 nm)", "setting": "[12]", "value": 0.038, "unit": "OD 490 nm"}]}]}
